B1: EHEE_rd2_0601 (parent)
chain: TYTYKLTDEEASRRAEDEWRNRGYDVRVRNNNGTWEVEVR

Variants of: B1
Assay: folding stability dG (cDNA display proteolysis); higher = more stable
Details: PBS, room temperature

| Variant | folding stability dG [kcal/mol] |
| --- | --- |
| E36I | 1.93 |
| E36C | 1.26 |
| E36Y | 1.98 |
| E36M | 1.19 |
| E36F | 1.75 |
| E36S | 0.611 |
| E36H | 0.826 |
| E36W | 1.83 |
| E36V | 1.58 |
| E36N | 0.173 |
| E36L | 1.6 |
| E36D | 0.292 |
| E36R | -0.245 |
| E36A | 0.137 |
| E36Q | 0.744 |
| R40M | 1.41 |
| R40K | 1.29 |
| R40A | 1.03 |
| R40H | 1.1 |
| R40D | 0.685 |
| R40L | 1.43 |

| Variant | folding stability dG [kcal/mol] |
| --- | --- |
| R40I | 1.51 |
| R40F | 1.65 |
| R40E | 0.721 |
| R40T | 1.54 |
| R40W | 1.8 |
| R40Q | 1.09 |
| R40S | 1.71 |
| R40Y | 1.59 |
| R40V | 1.32 |
| R40N | 0.95 |
| R40C | 1.7 |
| R40G | 0.86 |
| R40P | 0.016 |
| G33N | 0.553 |
| G33K | -0.238 |
| G33V | -0.925 |
| G33A | -0.168 |
| G33F | -0.159 |
| G33R | -0.712 |
| G33C | 0.74 |
| G33E | 0.259 |

| Variant | folding stability dG [kcal/mol] |
| --- | --- |
| G33H | -0.011 |
| G33T | -0.078 |
| G33M | -0.081 |
| G33D | 0.603 |
| G33Q | 0.157 |
| G33S | 0.025 |
| G33W | -0.61 |
| G33Y | -0.464 |
| G33L | -0.48 |
| T34R | 0.865 |
| T34E | 1.28 |
| T34M | 1.58 |
| T34N | 0.99 |
| T34H | 1.2 |
| T34S | 1.28 |
| T34F | 1.62 |
| T34V | 2.01 |
| T34K | 0.867 |
| T34W | 1.54 |
| T34Q | 1.48 |
| T34L | 1.48 |

| Variant | folding stability dG [kcal/mol] |
| --- | --- |
| T34Y | 1.66 |
| T34I | 2 |
| T34G | 0.674 |
| T34D | 0.864 |
| T34A | 1.17 |
| V37F | 0.362 |
| V37H | 0.241 |
| V37Y | -0.753 |
| V37W | -0.973 |
| V37L | 1.46 |
| V37T | -0.63 |
| V37M | 0.715 |
| V37A | -0.419 |
| V37I | 1.75 |
| N32V | 0.08 |
| N32Q | 1.05 |
| N32R | 0.859 |
| N32T | 0.049 |
| N32W | -0.071 |
| N32Y | 0.605 |
| N32S | 0.857 |
